The text below walks through data of US20210213165A1.

This experiment addresses autologous blood coagulum (ABC) prepared from rat full blood. The experiment in a line: rhBMP-6 mixed with rat full blood, coagulated for 60 min, serum removed; method of quantification not stated.

For the substance “recombinant human BMP6 (rhBMP6) (from UniProt P22004 375-513) (ligand)”, the percent bound is more than 95%.
